Common to all, as to test: SEC; gel filtration during purification, Superdex 200 increase 10/300 GL in gel-filtration buffer (Table S2), non-actinic dim green light; self-association (dimer)
Background: In gel filtration, larger molecules generally elute earlier.

Test [1] addresses IsPadC H193Q (Idiomarina sp. A28L).
In test [2] the target is IsPadC D199L (Idiomarina sp. A28L).
The target in test [3] is IsPadC H193L (Idiomarina sp. A28L).
Test [4] has as its target IsPadC R467S (Idiomarina sp. A28L).
The target in test [5] is Idiomarina species A28L phytochrome-activated diguanylate cyclase (IsPadC), wild type (Idiomarina sp. A28L).
Test [6] addresses IsPadC G449E (Idiomarina sp. A28L).
Test [7] addresses IsPadC D199N (Idiomarina sp. A28L).

Regarding IsPadC H193Q (enzyme), the stoichiometry N (usually a count of units in the complex or per binding partner) in test [1] is 2.

In test [2], IsPadC D199L (enzyme) gave a stoichiometry N of 2.

Consider IsPadC H193L (enzyme), for which, in test [3], the stoichiometry N came to 2.

For the substance IsPadC R467S (enzyme), the stoichiometry N in test [4] turned out to be 2.

For “Idiomarina species A28L phytochrome-activated diguanylate cyclase (IsPadC), wild type (enzyme)”, the stoichiometry N in test [5] amounted to 2.

Turning to IsPadC G449E (enzyme), the stoichiometry N in test [6] was 2.

For the substance IsPadC D199N (enzyme), in test [7], the stoichiometry N worked out at 2.

The record behind these values is publication PMC11035067.
